We go through 116 sequences from the supplement of paper PMC10724198.

± gives the standard deviation of the averaged measurements.
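Further: PSI is a weighted mean of sequencing reads over stability bins, variants kept only with over 10 reads, mCherry proximal and sfGFP distal, peptide attached via GGGS linker.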

In the data set the test system is Saccharomyces cerevisiae. The data set can be described thus: protein stability index of tFT-peptide fusion (C-terminal peptide) (PSI (0-1 scale)); higher = more stable (slower turnover). The following applies: genetic background: wild type; temperature: 30 C.
Consider KIDKLRKRQRKK, for which the protein stability index came to 0.664 ± 0.017.
Sequence KIENQKKRLQRT gave a protein stability index of 0.708 ± 0.028.
Then KIGVHRGRGGRM, with 0.614 ± 0.13; and KIKESIKIKKKR, with 0.6789 ± 0.0027.
Then KIMIGQPDGINV, with 0.65 ± 0.015; and KIQLTTMKNHGK, with 0.685 ± 0.013.
For the sequence KIRRIHRNVVKG, the protein stability index stood at 0.786 ± 0.055.
Then KKEEQEKKNRNK, with 0.711 ± 0.027; and KKEGIWEGERVG, with 0.724 ± 0.011; and KKELKKRNKAKK, with 0.66 ± 0.012.
Then KKENKERNNEYE, with 0.708 ± 0.081.
Then KKGKQQKTEKNG, with 0.802 ± 0.26.
For KKGKSKKKGKKT, the protein stability index came to 0.6906 ± 0.0018.
Then KKGVSNKVSGFT, with 0.719 ± 0.014; and KKIKKKKNKKQE, with 0.735 ± 0.075; and KKKIERKKNKEK, with 0.743 ± 0.071.
KKKKEKNKHNIR gave a protein stability index of 0.72 ± 0.009.
KKKKKIEQRKQE registered a protein stability index of 0.67 ± 0.017.
Then KKKKKKKESRSS, with 0.68 ± 0.045; and KKKKKKKKNMKR, with 0.683 ± 0.024; and KKKKKKKKTNKE, with 0.656 ± 0.11.
The value for KKKKKKKMTNLK was 0.809 ± 0.054; that for KKKKKKKQIKKK was 0.747 ± 0.026; that for KKKKKKKRNGAP was 0.667 ± 0.05.
Sequence KKKKKKRIREKR had a protein stability index of 0.721 ± 0.048.
Then KKKKKKRNKQKN, with 0.752 ± 0.043; and KKKKKSEIPKIT, with 0.686 ± 0.084; and KKKKNKLRNKQE, with 0.656 ± 0.015.
Then KKKKNNKETKNK, with 0.705 ± 0.015; and KKKKPKNKSKDK, with 0.634 ± 0.095.
The value for KKKKPKQKQKET was 0.686 ± 0.016.
KKKKTKKKKINI registered a protein stability index of 0.605 ± 0.0077.
Then KKKKTKKSKQKK, with 0.721 ± 0.0089; and KKKLKRTIKKIA, with 0.481 ± 0.034.
Then KKKNEKQNRLKN, with 0.769 ± 0.029; and KKKNKENKKKKK, with 0.737 ± 0.023; and KKKREKKKENTK, with 0.7108 ± 0.0067.
Then KKKRIERKEKGE, with 0.676 ± 0.059.
KKKRMKIKCIGI yielded a protein stability index of 0.647 ± 0.063.
Then KKKTIKNNERSK, with 0.69 ± 0.071.
The value for KKKYKKNKKKNK was 0.65 ± 0.033; that for KKLGLRLTFLHC was 0.564 ± 0.043.
Then KKNEEKRRGEGK, with 0.67 ± 0.049.
In turn, KKNERKEKNNTN registered a protein stability index of 0.673 ± 0.014.
The value for KKNETKQEKNTR was 0.689 ± 0.026.
Then KKNEVIKKNLRK, with 0.616 ± 0.063; and KKNIKKKRNIEK, with 0.625 ± 0.04; and KKNIKKKTKQKE, with 0.696 ± 0.007.
Then KKNKNKEYCKVK, with 0.734 ± 0.082.
With KKNNNINKHTST, the protein stability index came to 0.6652 ± 0.0058.
The value for KKNYEKPIRKYQ was 0.642 ± 0.02; that for KKQHTKKKKKKR was 0.752 ± 0.041.
Consider KKQKKQKKKSHK, for which the protein stability index is 0.715 ± 0.047.
Sequence KKRDKKKLRRVE registered a protein stability index of 0.672 ± 0.044.
The value for KKRGKNSKAQRE was 0.694 ± 0.013.
In the case of KKRHYSCYKNTN, the protein stability index was 0.725 ± 0.015.
Then KKSIVEARLSNM, with 0.58 ± 0.075.
Then KKTNTQTKKKTK, with 0.709 ± 0.075.
Then KKTQKNIKKKAK, with 0.679 ± 0.025.
Sequence KKTRRGSNKKEG displayed a protein stability index of 0.681 ± 0.025.
Then KKTSQKQKGKRQ, with 0.671 ± 0.12; and KLCGIYMVGGKK, with 0.65093 ± 0.00038; and KLGLLKVRVCDG, with 0.608 ± 0.0061.
Sequence KLGRWGARGSGR had a protein stability index of 0.655 ± 0.021.
Then KLKTKQNKERNK, with 0.757 ± 0.076; and KLREKKLLKIAE, with 0.679 ± 0.042; and KLSSQAWMISEK, with 0.695 ± 0.055.
With KLVGFRPHAWWF, the protein stability index was 0.701 ± 0.016.
The value for KNIIEKKIKKRK was 0.711 ± 0.0049.
On to KNKKEKKKVKRT, for which the protein stability index was 0.687 ± 0.026.
KNKKKKKTKKKK had a protein stability index of 0.792 ± 0.079.
Then KNKKKNKNNKKK, with 0.7048 ± 0.00079.
The value for KNKKNKKKTPTT was 0.727 ± 0.013.
KNNVVKIEEEKK yielded a protein stability index of 0.751 ± 0.013.
KNRHWNKKIRKC returned a protein stability index of 0.6533 ± 0.0065.
The value for KNRKSYTINSRK was 0.656 ± 0.055.
Then KPKANTEKIPIQ, with 0.68 ± 0.018; and KPKHNKKILEKK, with 0.671 ± 0.037.
The value for KPKLSHPQPLRI was 0.699 ± 0.016.
In the case of KPLPPPEFRPHP, the protein stability index came to 0.69 ± 0.02.
The value for KPRFRATPRQTT was 0.713 ± 0.037; that for KPRLARLSLSLL was 0.784 ± 0.14; that for KQKQRKERIKRK was 0.688 ± 0.069.
The value for KQVIIEKSIQQR was 0.661 ± 0.051; that for KRAPEPPTPPAP was 0.672 ± 0.015.
Then KRGKNKKRKQKK, with 0.716 ± 0.0076.
Turning to KRNKITKKDRIN, the protein stability index is 0.613 ± 0.031.
For KRNKKCKKIKKK, the protein stability index is 0.677 ± 0.11.
Then KRRNKEHNKIRD, with 0.652 ± 0.052; and KSAGNWSKGKRE, with 0.713 ± 0.083.
Then KSGGWLWVGGGG, with 0.748 ± 0.039; and KSHKKKKKNKNF, with 0.539 ± 0.0035; and KSKGGGTEPNRR, with 0.695 ± 0.009.
The value for KSKKKKKNKTNR was 0.6792 ± 0.0022; that for KSKRKKKKQTKR was 0.653 ± 0.024.
Take KSVGKGIIQLRL: the protein stability index amounted to 0.726 ± 0.042.
The value for KTECMAIEKTLV was 0.686 ± 0.033.
Then KTENGRSNSETR, with 0.686 ± 0.074.
The value for KTGLMRGHEVAS was 0.673 ± 0.03.
Regarding KTGNKKQRKKKV, the protein stability index worked out at 0.753 ± 0.032.
The value for KTHTIGPSPYYD was 0.649 ± 0.0088; that for KTKGPKSKPKRK was 0.6563 ± 0.0046; that for KTKKNKITFKNK was 0.759 ± 0.02.
Then KTNIKKQSKISK, with 0.778 ± 0.18; and KTQKNQKLTRSK, with 0.769 ± 0.12.
The value for KTRKKEKKPSRK was 0.6233 ± 0.0036; that for KVDGTIDSRVMS was 0.683 ± 0.089; that for KVRAGLGIRITQ was 0.674 ± 0.021.
The sequence KVRSFGGLFVKG displayed a protein stability index of 0.68 ± 0.022.
The value for KVSCGGAGDSLG was 0.693 ± 0.022; that for KVSIINAWKEKI was 0.679 ± 0.044; that for KVVVWRAKTSHS was 0.692 ± 0.068.
The value for KWLAQLEHEKYN was 0.696 ± 0.025; that for KWMKKIKTRRQI was 0.609 ± 0.018; that for KYHIKKPSTLEI was 0.683 ± 0.01.
Then KYKKNNNKKQNQ, with 0.704 ± 0.097.
